According to patent US20120244578A1 (Amgen, published 2012):

Experiments:
human FcRn = target: T1, human FcRn (human, UniProt P55899 24-297; P61769 21-119, limits assumed); assay: BIAcore solution competition (FIG. 6)
T1 construct: also called neonatal Fc-receptor
Procedure: (§1) BIAcore analysis of human and mouse FcRn binding to Fc mutant #1 (Fc K392D-K409D, dimer), #2 (Fc K392D-K409D-Y349T, monomeric SEC profile) and #6 (Fc K392D-K409D-Y349T, monomeric SEC profile) using a BIAcore3000 instrument. CHO cell produced huFc was immobilized on follow cell 2 (Fc2) on a CM5 chip. Fc1 was used as background control. 2 nM human FcRn were incubated with 1, 10, 100 nM of indicated Fc variants for one hour before injected to the CHO huFc surface. Reduced binding of FcRn to the immobilized CHO huFc indicates binding of FcRn to the Fc variants in solution. 2 nM mouse FcRn were incubated with 0.1, 1, 10 nM of Fc variants for one hour before injected to the CHO huFc surface.

mouse FcRn = target: T2, mouse FcRn (mouse, UniProt Q61559 22-297; P01887 21-119, limits assumed); assay: BIAcore solution competition (FIG. 6)
T2 sequence (looked up): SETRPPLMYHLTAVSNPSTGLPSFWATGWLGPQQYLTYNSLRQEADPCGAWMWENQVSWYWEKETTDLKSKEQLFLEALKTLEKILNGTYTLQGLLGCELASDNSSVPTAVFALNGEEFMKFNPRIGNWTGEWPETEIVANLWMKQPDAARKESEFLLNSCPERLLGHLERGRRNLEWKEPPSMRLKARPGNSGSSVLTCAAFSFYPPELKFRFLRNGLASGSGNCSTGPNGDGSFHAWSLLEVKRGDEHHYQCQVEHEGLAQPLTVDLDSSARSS
T2 sequence (b2m, looked up): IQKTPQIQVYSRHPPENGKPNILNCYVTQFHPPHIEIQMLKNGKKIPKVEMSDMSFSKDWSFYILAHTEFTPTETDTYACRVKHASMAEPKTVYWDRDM
Procedure: as §1

T1 sequence (P55899 24-297 limits assumed, chain 1 of 2): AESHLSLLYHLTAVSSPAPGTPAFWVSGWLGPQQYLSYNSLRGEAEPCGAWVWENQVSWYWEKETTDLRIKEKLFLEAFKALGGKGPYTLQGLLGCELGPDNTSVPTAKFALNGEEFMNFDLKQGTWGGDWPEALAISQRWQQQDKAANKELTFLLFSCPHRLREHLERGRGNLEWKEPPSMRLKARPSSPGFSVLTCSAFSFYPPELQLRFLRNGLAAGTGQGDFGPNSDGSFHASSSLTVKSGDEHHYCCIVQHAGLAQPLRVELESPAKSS
T1 sequence (P61769 21-119 limits assumed, chain 2 of 2): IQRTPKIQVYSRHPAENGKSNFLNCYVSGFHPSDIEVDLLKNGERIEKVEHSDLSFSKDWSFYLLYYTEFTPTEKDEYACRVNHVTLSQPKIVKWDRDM

B1: hu IgG1 Fc K392D K409D Y349T (construct 2 of Table 2) (other, human, UniProt P01857-1 114-330, looked up, name in EU numbering)
chain: APELLGGPSVFLFPPKPKDTLMISRTPEVTCVVVDVSHEDPEVKFNWYVDGVEVHNAKTKPREEQYNSTYRVVSVLTVLHQDWLNGKEYKCKVSNKALPAPIEKTISKAKGQPREPQVTTLPPSRDELTKNQVSLTCLVKGFYPSDIAVEWESNGQPENNYDTTPPVLDSDGSFFLYSDLTVDKSRWQQGNVFSCSVMHEALHNHYTQKSLSLSPGK
notes: domain: Fc; Monomer by SEC and AUC; also called Fc mutant #2; Monomer Fc
B1: binds (human FcRn); binds (mouse FcRn).
